This passage reports 100 nM FACS (MFI Ratio) results from patent publication US20230265179A1.

First the molecules themselves.
B1: CD40L-385 (antibody, V domains shown)
VH: EVQLLESGGGLVQPGGSLRLSCAASGFTFSNYAMSWVRQAPGKGLEWVSAITGSGSTTYYADSVKGRFTISRDNSKNTLYLQMNSLRAEDTAVYYCARAHDYDSMLMDYWGQGTLVTVSS
VL: DIQMTQSPSSLSASVGDRVTITCRASQSIKSYLNWYQQKPGKAPKLLIYSASSLLSGVPSRFSGSGSGTDFTLTISSLQPEDFATYYCQQSYTLPRTFGGGTKVEIK
B2: CD40L-421 (antibody, V domains shown)
VH: EVQLLESGGGLVQPGGSLRLSCAASGFTFSKYAMNWVRQAPGKGLEWVSAISGSGESTYYADSVKGRFTISRDNSKNTLYLQMNSLRAEDTAVYYCATDYGDYDRLNFDLWGQGTLVTVSS
VL: DIQMTQSPSSLSASVGDRVTITCRGSQSISSFLNWYQQKPGKAPKLLIYAASKLHSGVPSRFSGSGSGTDFTLTISSLQPEDFATYYCQHSYSTPLTFGGGTKVEIK
B3: CD40L-392 (antibody, V domains shown)
VH: EVQLLESGGGLVQPGGSLRLSCAASGFTFSSFDMTWVRQAPGKGLEWVSGISGSGGTTFYADSVKGRFTISRDNSKNTLYLQMNSLRAEDTAVYYCVRDVSDIYGYLDDAFDIWGQGTLVTVSS
VL: DIQMTQSPSSLSASVGDRVTITCRASQDIRNYLNWYQQKPGKAPKLLIYATSSLQTGVPSRFSGSGSGTDFTLTISSLQPEDFATYYCQQSYGAPLTFGGGTKVEIK
B4: CD40L-401 (antibody, V domains shown)
VH: EVQLLESGGGLVQPGGSLRLSCAASGFTFGNYAMTWVRQAPGKGLEWVSAISGLGGSTYYADSVKGRFTISRDNSKNTLYLQMNSLRAEDTAVYYCTSSDPTYYYDSNGKSSLGMDVWGQGTLVTVSS
VL: DIQMTQSPSSLSASVGDRVTITCRGSQSISSFLNWYQQKPGKAPKLLIYAASKLHSGVPSRFSGSGSGTDFTLTISSLQPEDFATYYCQHSYSTPLTFGGGTKVEIK
B5: CD40L-417 (antibody, V domains shown)
VH: EVQLLESGGGLVQPGGSLRLSCAASGFTFSKYAMNWVRQAPGKGLEWVSAISGSGESTYYADSVKGRFTISRDNSKNTLYLQMNSLRAEDTAVYYCARHGGYYYYYMDVWGQGTLVTVSS
VL: DIQMTQSPSSLSASVGDRVTITCRGSQSISSFLNWYQQKPGKAPKLLIYAASKLHSGVPSRFSGSGSGTDFTLTISSLQPEDFATYYCQHSYSTPLTFGGGTKVEIK
B6: CD40L-410 (antibody, V domains shown)
VH: EVQLLESGGGLVQPGGSLRLSCAASGFTFRTYAMGWVRQAPGKGLEWVSAISGSGGIAYYADSVKGRFTISRDNSKNTLYLQMNSLRAEDTAVYYCARHYYYDSSDAFDIWGQGTLVTISS
VL: DIQMTQSPFSLSASVGDRVTITCRASQNILTYLNWYQQKPGKAPKLLIYGASTLRSGVPSRFSGSGSGTDFTLTISSLQPEDFATYYCQQSYRLPLTFGGGTKVEIK
B7: CD40L-154 (VHH)
VHH: EVQLVESGGGLVQPGGSLRLSCAASGRTSRSYEMGWFRQAPGKEREFVAAIDWDGSRTQYADSVKGRFTISADNSKNTAYLQMNSLKPEDTAVYYCAVPRETGWDGDWGQGTLVTVSS
B8: CD40L-182 (antibody, V domains shown)
VH: EVQLLESGGGLVQPGGSLRLSCAASGGYNFRDYMHWVRQAPGKGLEWVSYISSSGSSTYYADSVKGRFTISRDNSKNTLYLQMNSLRAEDTAVYYCAKNLGQGFDYWGQGTLVTVSS
VL: DIQMTQSPSSLSASVGDRVTITCSGDNLGDKYVHWYQQKPGKAPKLLIYGKKNRPSGVPSRFSGSGSGTDFTLTISSLQPEDFATYYCQAWDRTVVFGQGTKVEIK
B9: CD40L-141 (VHH)
VHH: EVQLVESGGGLVQPGGSLRLSCAASGGTLDDYAMGWFRQAPGKEREFLASVSWGFGSTYYADSVKGRFTISADNSKNTAYLQMNSLKPEDTAVYYCAKDGGSYGMDVWGQGTLVTVSS

Chain of CD40L over-expressed on Expi293 cells (P29965 whole entry): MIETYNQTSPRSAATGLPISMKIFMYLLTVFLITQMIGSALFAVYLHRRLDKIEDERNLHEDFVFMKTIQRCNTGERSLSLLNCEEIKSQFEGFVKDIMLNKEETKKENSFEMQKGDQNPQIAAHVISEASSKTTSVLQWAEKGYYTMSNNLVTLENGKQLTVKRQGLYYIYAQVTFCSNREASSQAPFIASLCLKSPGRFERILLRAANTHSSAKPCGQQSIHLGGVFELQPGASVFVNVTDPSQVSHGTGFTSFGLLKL

For one assay, the target named is CD40L (UniProt P29965). The assay can be described thus: flow cytometry, 100 nM IgG, CD40L over-expressing Expi293 cells over parent Expi293 cells. Background: In flow cytometry, cells or beads pass a laser one at a time.
Chain of CD40L (P29965 whole entry): as above
Regarding B1, the 100 nM FACS (MFI Ratio) came to 1.9 MFI ratio.
Same read-out and setting: in the case of B2 it was 1.9 MFI ratio.
For the molecule B3, the 100 nM FACS (MFI Ratio) turned out to be 2 MFI ratio.
Take B4: the 100 nM FACS (MFI Ratio) was 1.8 MFI ratio.
Same read-out and setting: in the case of B5 it was 1.7 MFI ratio; in that of B6, 1.8 MFI ratio.

Another assay addresses CD40L over-expressed on Expi293 cells (UniProt P29965). Briefly: flow cytometry, 100 nM antibody, CD40L-Expi293 vs parent Expi293 cells.
Turning to B7, the 100 nM FACS (MFI Ratio) came out at 1.9.
Still for that read-out and setting: in the case of B8 it was 1.8; in that of B9, 2.
